The results in this text go back to doi:10.1101/2021.03.12.435194, “Antibody evasion by the Brazilian P.1 strain of SARS-CoV-2” (bioRxiv, 2021).

The target of the assay is T1, WT RBD (Wuhan) (SARS-CoV-2, Wuhan (RBD identical in …, UniProt P0DTC2)).
T1 construct: also called Wuhan RBD; native RBD
In words: crystal structure. The note with it: both partners purified.

B1: EY6A Fab (Fab, V domains shown)
VH: EVQLVESGGGVVQPGRSLRLSCAASAFTFSSYDMHWVRQAPGKGLEWVAVISYDGSNKYYADSVKGRFTISRDNSKNTLYLQMNSLRAEDTAVYYCAKDGGKLWVYYFDYWGQGTLVTVSS
VL: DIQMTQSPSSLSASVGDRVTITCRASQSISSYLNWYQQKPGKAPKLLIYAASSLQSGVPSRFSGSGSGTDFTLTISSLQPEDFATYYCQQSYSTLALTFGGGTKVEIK
Take B1: the binding result is recorded as “binds”.
